Test: yeast display, Sf9 membrane polyspecificity reagent, FACS + sequencing; frameworks hold sequencing errors
Outline: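 Galactose induction of a Saccharomyces cerevisiae BJ5465 synthetic nanobody display library ran 36–48 hours. The cells were then stained for 1 hour at 4 °C with 10% biotinylated, detergent-solubilized Sf9 membrane reagent, pulled down on streptavidin microbeads and FACS-sorted into low and high (top ~1%) gates on expression and reagent-binding fluorescence. Labels for polyreactivity follow the gate of origin.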

Sequence | polyreactivity (PSR sort gate)
QVQLVESGGGLVQAGGSLRLSCAASGYTFFRYAMGWYRQAPGKERELVAAITGSGGRTYYADSVKGRFTISRDNAKNTVYLQMNSLKPEDTAVYYCNRYGSGHSFIYDYWGQGTQVTVSS | high polyreactivity
QVQLVESGGGLVQAGGSLRLSCAASGLIFSTNDMGWYRQAPGKERELVAAITSDVSTYYADSVKGRFTISRDNAKNTVYLQMNSLEPEDTAVYYCAKDDSGYINWRYDYWGQGTQVTVSS | low polyreactivity
QVQLVESGGGLVQAGGSLRLSCAASGRTFRPYAMGWYRQAPGTERELVARITSGGGRTYYADSVKGRFTISRDNAKNTVYLQMNSLKPEDNAVYYCNKAIYSLYRDGYTNFDYWGQGTQVTVSS | high polyreactivity
QVQLVESGGGLVQAGGSLRLRWAASGRIFLNYAMGLYRQEPGKEREVVAAISRTGGRKYYADSVKGRFTISRDTEKNTVYLQMYSLKPEDTAVYYCDAYYSGFLTYGLDYWGQGTQVTLSS | high polyreactivity
QVQLEESGGGLVQAGGSLRLSCAASGSIFNVNTIGWYRQAPGKEREFVAAISYSGGSTYYADSVKGRFTISRDNAKNTVYLQMNSLKAEDTALYYCNVSPTTSGDGGGYDSWGQGTQVTVSS | low polyreactivity
QVQLVESGGGLVQAGGSLRLSCAASGRTFWTNAMGWYRQAPGKEREFVAGISQSGGSTYYADSVKGRFTISRDNAKNTVYLQMNSLKPEDTAVYYCATVKAYRRNYYYWGQGTQVTVSS | high polyreactivity
QVQLVETGGGLVKAGGSLRLSCAASGRTFGKYAMGWYRQETGKESELVAAITTRVVITYYADSVKGRFTISRDNAKNTVYLQMNSLKPEDTAVYYCAADPEKNYRPFNHYYYWGQGTQVTVSS | low polyreactivity
QVQLVESGGGRVQAGGSLRLSCAASGSIFTTYTMGWDRQAPGKESEWVAAITSSSGSTYYADSVKGRFTISRDNAKNTVYLQMNSLKPEDTAVYYCAARGYFDFSRYDSWGHGTQVTVSS | low polyreactivity
QVQLRESGGGLVQAGGSLSLSCAASGTIFYSRYMGWYRQAPGKEREFVASNSSGGNTNYADSVKGRFTISRDNAKNTVYLQMNSLKPEVSAVYYCEVNTGLITTFPYWGQGTQVTVSS | high polyreactivity
QVQLVESGGGLVQAGGSLRLSCAASGSTFIGYAMGWYRQAPGKERELVAAISRSDGSTYYADSVKGRFTISRDHAKNTVYLQMNSLKPEDTAVYYCNADYYRWYDYWGQGTQVTLSS | low polyreactivity
QVQLVESGGGLVQAGGSLRLSCAASGSIFDVNAMGWYRQAPGKERELVAAISDSGGSTYYADSVKGRFTISRDNAKNTVYLQMNSLKPEDTAVYYCNADWSWYNYYDLDYWGQGTQVTVSS | low polyreactivity
QVQLVESGGGLVQAGGSLRLSCAASGFILRSYGMAWYRKAPGKERELVAAITRGGSTYYADSVKGRFTISRDNAKNTVYLQMNSLKAEDTAVYYCAARTRYYSQQFDYWGQGTQVTVSS | high polyreactivity
QVQLVESGGRLVQAGGSLRLSCAASGLTFSGYAMGWYRQAPGKERELVAAISGGGGSTYYADSVKGRFTISRDNAKNTVYLQMNSLKPEDTAVYYCAARPRWYTYTRQEYDYWGQGTQVTVSS | high polyreactivity
QVQLVESGGGLVQAGGSLRLSSAASGSIFYKNAKGWYRQAPGKEREFVAGISRRGGSTYYADSVKGRFTISLDNAKNTVYLQMNSLKPEDTAVYYCASSQSGGYDYWGQGTQVTVSS | high polyreactivity
QVQLVESGGGLVQAGGSLRLSCAASGFTFGNNAMGWYRKAPGKERELVAAISKRGSSTYYADSVKGRFTISRDNAKNTVYLQMNSLKPEDTAVYYCAAEGRRTRYYYWGQGTQVTVSS | high polyreactivity
QVQLVESGGGLVQAGGSLRLSCAASGFTLRRNAMGWYRQAPGKERELVAAISSSGSTYYADSVKGRFTISRDNAKNTVYLQMNSLKPEDTAVYYCAASATYKVRGGYWGQGTQVTVSS | high polyreactivity
QVQLVESGGGLVQAGGSLRLSCAASGITIKYYTMGWYRQANGKERELVAAISRSGGSTYYADSVKGRFTISLDNAKNTVYLQMNSMIPEDTAVYYCAAERVAYRGVTFPYGYWGQGTQVTVSS | high polyreactivity
QVQLVESGGGLDQAGGSLRLSCAASGFIFFRYAMGWYRQAPGKERELVAGNNGSDGSTYYADSVKGRFTISRDNAKNTVYLQMNSLKPEDTAVYYCAAEGGFSPQPYNLYYATPREDYWGQGTQVTVSS | low polyreactivity
QVQLVESGGGLVQAGGSLRLSCAASGRTFARNAMGWYRQAPGKERELVASIRWRGGSTYYADSVKGRFTISRDNAKNTVYLQMNRLKPEDTAVYYCATRSPYYVGRGYISYDYWGQGTQVTVSS | high polyreactivity
QVQLVESGGGLVQAGGSLRLSCAASGITLGGNGMGWYRQAPGKERELVAAISQSGGTTYYADSVKGRFTISRDNAKNTVYLQMNSLKPEDTAVYYCNALWRGHGRYNYWGQGTQVTVSS | low polyreactivity
QVQLEESGRGLVQAGGSLRLSCAASGFTFNWYAMGWSSQATGKERELVATINSGGSTYYADSVKGRFTISRDNAKNTVYLQMNSLKPEDTAVYYCNRTHRRRYVKSAYNYWGQGTQVTVSS | low polyreactivity
QVQLVESGGGLVQAGGSLRLSCAASGGIFASNAMGWYRQAPGKERELVATITRGGSTNYADSVKGRFTISRDNAKNTVYLQLNSLKPEDTAVYYCAARFYSRAFWPAYYYWGQGTQVTVSS | high polyreactivity

Sequence | polyreactivity (PSR sort gate)
QVHLVESGGGLVQAGGSLRLSCAASGSIFFVNAMGWYRQAPGKERELVADISSGGSTNYADSVKGRFTISRDNAKNTVYLQMNSLKPEDTAVYYCNTDEPPIYERFPYDYWGQGTQVTVSS | low polyreactivity
QVQLVESGGGLVQAGGSLRLSCAASGSIFVGYAMGWYRQAPGKERELVAAISWSGDSTYYADSVKGRFTISRDTAKNTVYLQMNSLKPEDTAVYYCAVDYAEIGPRREVEYDYWGQGTQVTVSS | low polyreactivity
QVQIVESGGGLVQAGGSLRFSCAASGRIFIYNAMGWYRQAPGKERELVAAISRTGGRTYYADSVKGRFTISRDISKNTVYLQMNSLKPEDTAVYYCAARNRGQYYSWGQGTQLTVSS | high polyreactivity
QVQLVESGGGLVQAGGSLRLSCAASGRTFFGNAKGWYRQAPGKERELVAAISWRGGSTYYADSVKGRFTISRDNAKKTVYLQMNSLKPEDTAVYYCATGRYGYGYWGQGTQVTVSS | high polyreactivity
QVQLVESGGGLVQAGGSLRLSCAASGRTFHSYAMGWYRQAPGKERELVAVITRRGGSTYYADSVKGRFTISRDNAKNTVYLQMNSLKPEDTAVYYCNKGKSYTYDYWGQGTQVTVSS | high polyreactivity
HVQLVESGGGLVQAGGSLRLSCAASGSTFSAYAMGWDRQAPGKERELVASISYSGSSTYYADSVKGRFTISRDNAKNTVYLHMNSLNPEDTAVSSCAADDRYWGPGGPLSRWSRGMYYWGQGTQVTVSS | high polyreactivity
QVQLVESGVGLVHAGGSLRLSCAASGITFDHYTMGWYRQAPGKEREFVAAITGSGVRTYYADSVKVRFTISRDNAKNTVYLQMNSLKPEVTAVYYCAAVWRYTGKYWGQGTQVTISS | high polyreactivity
QVQLVESGGGLVQAGGSLRLSCAASGCTFGTYAMGWYRQAPGKERELVAAITDSTGNTYYADSVKGRFTISRDNAKNTVYLQMNSLKPEDTAVYYCALEYVYDYFWMDYWGQATQVTVSS | high polyreactivity
QVQLVESGGGLVQAGGSLRLSCAASGLTINGNTMGLYRQAPGKERELVAVIDWSGGSTYYADSVKGRFTISRDNAKNTVYLQMNSLKPEDTAVYYCNAETRDPILYGEYDYWGQGTQVTVSS | low polyreactivity
QVQLVESGGGLVQAGGSLRLSCAASGSIFLANAMGWYRQAPGKERELVAGISSSVTTNYADSVKGRFTISRDNAKNTVYLQMNSLKPEDTAVYYCNTVLRVQFYWGQGTQVSVSS | low polyreactivity
QVQLVESGGGLVQAGGSLRLSCAASGRTLRIYAMGWYRQAPGKERELVAAITSSGRTNYADSVKGRFTISRDNAKNTVYLQMNSLKPEDTAVYYCSADYYYYVAGVHYDYWGQGTQVTVSS | low polyreactivity
QVQLVESGGGLVQAGGSLRLSCAASGSIFSNNAMGLYRQAPGKVSELVASITFSGGNTYYADSVKGRFTISRDNAKNTVYLQMNSLKPEDTAVYYCNADRYPVGTAREYDSWGQGTQVTVSS | low polyreactivity
QVQLVESVGGLVQAGGSLRLSCAASGLTFGGNAMGRYRQAPGKVRELVAAISGSGGRTYYADSVKGRFTISRDNAKNTVYLQMNSLKPEDTAVYYCNAATKRRTSDYWGQGTQVTVSS | high polyreactivity
QVQLEESGGGLVQAGGSLSLSCAASGRNMPYNVMAWYIQATGKEREFVAAITGSGGDTYYADSVKGRFTISRDNAKNTVYLQMNSLKPEDTAVYYCAAAPYIGCSFGQTPGSGYWGQGTQVTVSS | low polyreactivity
QVQLVESGGGLVQAGGSLRLTCAASGGTLRYYGMGWYRQAPGKEWEFVAAISWSGDSTYYADSVKGRFTISRDNAKTTVYLQMNSLKPEDTAVYFCAATYYLTYYYGQANHGYDYWGQGTQVTVSS | low polyreactivity
QVQLVESGGGVVQAGGSLRLSCAASGRIFGPNDMGWYRQAPGKGRELVAAITDSGDITYYADSVKGRFTISRDTAKNTVNVQMNCLKPEDTAVNYFAADHTYENEYRGQGTQVTVSS | low polyreactivity
QVQLVESGGGLVQAGGSLRLSCAASGFIFGAYAMGWYRQAPGKESELVAAISWSGGRTYYADSLTGRFTISRDNAKNTVYLQMNSLKPEDTAVYYCAAAVYTTRYSASEYWGQGTEVTVSS | high polyreactivity
QVQLVESGGGLVQAGGSLRLSCAASGRTFKKYAMGWYSQAPGKERELVAAITVSGGSTYYADSVKGRFTVSRDNAKNTVYLQMNSLKPEDTAVYYCAAGSYSRYLFSLYFDFDYWGQGNQVTVSS | low polyreactivity
QVQLVESRGGLVQAGGSLRLSCAASGFIFRYYAMGWYRQEPGKDSELVAAISWSGGSTYYADSVKGRFTISRDNAKNTVYLQMNSLKPEDTAVYYCAADRYAILFYAEDYWGQGTQVTVSS | low polyreactivity
QVQLVESGGGLVQAGGSLRLSCAASGYIFSRYAMGWYRPAPGKERELVAAITRSGTRTYYADSVKGRFTISRDNAKNTVYLQMNSLKPEDTAVYYCAKQYLYSSGFDYWGQGTQVTVSS | high polyreactivity
QVQLVESGGGLVQAGGSLRLSCAASGRWLYAMGWYIQAHGKERELVAAISRSGGSTNYADSVKGRFTISRDNAKNTVYLQMNSLKPEDTAVYYCAATPYSYYTYQPEGEYWGQGTQVTVSS | low polyreactivity
